Reference: FireProtDB (doi:10.1021/bi952930e)

B1: Ribonuclease, P00648 (parent)
chain: MMKMEGIALKKRLSWISVCLLVLVSAAGMLFSTAAKTETSSHKAHTEAQVINTFDGVADYLQTYHKLPDNYITKSEAQALGWVASKGNLADVAPGKSIGGDIFSNREGKLPGKSGRTWREADINYTSGFRNSDRILYSSDWLIYKTTDHYQTFTKIR

Variants of: B1
Details: Bacillus amyloliquefaciens, pH 6.3, 25 °C, Urea, MES 100 mM, reversible: yes, structure 1BNI, whole UniProt chain shown

Variant	ddG of mutation (higher = less stable) (Fluorescence) [kcal/mol]	denaturant m value (Fluorescence) [kcal/mol/M]	denaturant midpoint (higher = more stable) (Fluorescence) [M]	ddG of mutation (higher = less stable) (CD) [kcal/mol]	denaturant m value (CD) [kcal/mol/M]	denaturant midpoint (higher = more stable) (CD) [M]
D122N	4.8	1.69	2.08	–	–	–
R116M	2.12	2.14	3.47	–	–	–
R116S	2.72	1.86	3.16	–	–	–
R116K	–	–	–	3.13	1.89	2.94
D140N	4.11	1.99	2.44	–	–	–
R130K	4.13	1.68	2.43	–	–	–
R130Q	2.05	2.28	3.51	–	–	–
